From paper PMC10490071

Assays:
Experiment in all cases: SEC-MALS + native gel or EMSA; static light scattering (DynaPro, Wyatt) after Superdex 200, 100 uL at >1 mg/mL in 10 mM PBS pH 7.4, flow 0.45 mL/min, LS, UV and dRI detection; 10% native-PAGE, 1 umol protein loaded; oligomeric state in solution
[1] = target: rFIP-nha N5+39A double glycosylation mutant, expressed in P. pastoris (Nectria haematococca)
[2] = target: rFIP-nha N39A glycosylation mutant, expressed in P. pastoris (Nectria haematococca)
[3] = target: rFIP-nha wild-type (fungal immunomodulatory protein from Nectria haematococca), expressed in P. pastoris (Nectria haematococca)
[4] = target: rFIP-nha N5A glycosylation mutant, expressed in P. pastoris (Nectria haematococca)

Work on “rFIP-nha N5+39A double glycosylation mutant, expressed in P. pastoris (natural protein)” yielded a stoichiometry N [1] of 4.

“rFIP-nha N39A glycosylation mutant, expressed in P. pastoris (natural protein)” gave a stoichiometry N [2] of 4.

“rFIP-nha wild-type (fungal immunomodulatory protein from Nectria haematococca), expressed in P. pastoris (natural protein)” showed a stoichiometry N [3] of 4.

“rFIP-nha N5A glycosylation mutant, expressed in P. pastoris (natural protein)” showed a stoichiometry N [4] of 4.
